According to publication PMC6787100:
“And” between values parts separate entries of the source, which are not always exact repeats. Equal values may be shown once.

Key:
[1] = molecular target: lantibiotic subtilomycin (Bacillus subtilis BSn5); assay: tricine-SDS-PAGE; purified subtilomycin on 16% tricine-SDS-PAGE; bands of around 9, 12 and 15 kDa; oligomers of subtilomycin
[2] = molecular target: Hag (ex), recombinant Hag with the flg22 region replaced by flg22 (Ps) (Bacillus subtilis BSn5 | Pseudomonas syringae); assay: MST; protein labelled with Cy5-NHS ester at fixed concentration, serial 2x dilutions of unlabelled subtilomycin (1 mM set as highest; 500 μM highest final in the legend); PBS pH 8.0; MST power 20%, LED power 60%; Monolith NT.115; constants called ambiguous, based on total subtilomycin concentration

## lantibiotic subtilomycin (peptide)
[1]
  stoichiometry N: 3 and 4 and 5
[2]
  Kd: 80.6 µM
